This is an account of results in publication PMC5983706, “A Rationally Designed Hsp70 Variant Rescues the Aggregation-Associated Toxicity of Human IAPP in Cultured Pancreatic Islet β-Cells” (International Journal of Molecular Sciences, 2018).

Ends that are not written are not given here. FAM = carboxyfluorescein

This assay concerns the target T1, Hsp70 wild type (human Hsp70 1A) (human, UniProt P0DMV8 1-641).
T1 construct: human Hsp70 1A, GenBank entry NP005336; also called Hsp70 WT; heat shock protein 70 kDa
In words: other fluorescence titration; 0.15 µM FAM-hIAPP with 0 to 36 µM chaperone in 50 mM Tris pH 7.4, 150 mM KCl, 5 mM MgCl2, 1 h at room temperature; FAM fluorescence at 520 nm; one-site binding model. Particulars: both partners purified.

T1 sequence (P0DMV8 whole entry): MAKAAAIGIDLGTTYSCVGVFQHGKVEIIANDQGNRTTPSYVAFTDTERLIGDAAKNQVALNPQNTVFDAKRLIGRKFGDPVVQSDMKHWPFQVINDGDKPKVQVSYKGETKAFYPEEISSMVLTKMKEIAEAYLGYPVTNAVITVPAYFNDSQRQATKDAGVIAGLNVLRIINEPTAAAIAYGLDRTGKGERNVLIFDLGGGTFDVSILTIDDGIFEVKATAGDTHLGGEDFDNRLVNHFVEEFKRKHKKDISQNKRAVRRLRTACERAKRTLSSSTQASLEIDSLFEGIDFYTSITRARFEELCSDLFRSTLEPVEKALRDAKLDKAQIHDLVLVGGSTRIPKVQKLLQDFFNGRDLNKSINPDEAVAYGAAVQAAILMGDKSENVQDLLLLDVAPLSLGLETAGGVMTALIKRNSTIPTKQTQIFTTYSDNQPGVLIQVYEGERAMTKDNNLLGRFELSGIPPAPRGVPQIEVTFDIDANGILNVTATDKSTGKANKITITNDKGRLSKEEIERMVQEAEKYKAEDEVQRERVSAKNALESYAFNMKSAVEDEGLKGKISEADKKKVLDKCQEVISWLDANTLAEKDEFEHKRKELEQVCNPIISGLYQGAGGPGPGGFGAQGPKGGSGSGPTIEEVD

B1: FAM-hIAPP (human islet amyloid polypeptide N-terminally labelled with carboxyfluorescein) (peptide, UniProt P10997 34-70, looked up)
peptide: {FAM}-KCNTATCATQRLANFLVHSSNNFGAILSSTNVGSNTY
modifications: ends and bridges not checked
notes: human islet amyloid polypeptide (hIAPP, amylin), the mature hormone cut from its precursor; also called amylin; source: bought: Phoenix Pharmaceuticals
As a reminder, the Kd is the constant that tells how readily two partners part at equilibrium. For the molecule B1, the dissociation constant (Kd) is 2200 ± 300 nM.
